Laboratory results published in patent US20260158153A1, “BCMA MONOCLONAL ANTIBODY AND THE ANTIBODY-DRUG CONJUGATE” (priority 2021, published 2026).
Where a chain is given by its changes, count along the chain named.

Key:
[1] = system: multiple myeloma (MM) patients; details: cited from earlier work
JJN-3 = experiment: MTT in vitro cytotoxicity assay of BCMA antibody conjugates, JJN-3; format: cell-based; details: Homo sapiens, 6000 cells, 96 h incubation, conjugates prepared via homogeneous conjugation process
Experimental: (§1) The cell lines used in the cytotoxicity assays were (1). NCI-H929, JJN3, U266, and MM1S were obtained from ATCC, and 8226-2A1cell is Myeloma antigen express cells through culturing and clone-picking of ATCC's RPMI-8226. The cells were grown according to the provider manuals. To run the assay, the cells (180 μl, 6000 cells) were added to each well in a 96-well plate and incubated for 24 hours at 37° C. with 5% CO2. Next, the cells were treated with test compounds (20 μl) at various concentrations in appropriate cell culture medium (total volume, 0.2 mL). The control wells contain cells and the medium but lack the test compounds. […] MTT (5 mg/mL) was then added to the wells (20 μl) and the plates were incubated for 1.5 hr at 37° C. The medium was carefully removed and DMSO (180 μl) was added afterward. After it was shaken for 15 min, the absorbance was measured at 490 nm and 570 nm with a reference filter of 620 nm. The inhibition % was calculated according to the following equation: inhibition %=[1−(assay-blank)/(control-blank)]×100.

MM1S = experiment: MTT in vitro cytotoxicity assay of BCMA antibody conjugates, MM1S; format: cell-based; details: Homo sapiens, MM1.S, 6000 cells, 96 h incubation, conjugates prepared via homogeneous conjugation process
Experimental: as §1

JJN-3 cell xenograft = experiment: Antitumor activity in vivo, JJN-3 cell xenograft mouse model of multiple myeloma; details: FIG. 10; single dose 5 mg/Kg
NCI-H929 = experiment: MTT in vitro cytotoxicity assay of BCMA antibody conjugates, NCI-H929; format: cell-based; details: Homo sapiens, 6000 cells, 96 h incubation, conjugates prepared via homogeneous conjugation process
Experimental: as §1

[2] = molecular target: T1, Human B cell maturation antigen (BCMA, CD269) (human, UniProt Q02223 1-54); experiment: ELISA, plate coated with 1 ug/ml soluble BCMA (recombinant TrxA-BCMA), OD450 against IgG concentration
T1 construct: Flow cytometry used whole BCMA on NCI-H929 and RPMI-8226-BCMA cells; also called hBCMA
T1 sequence: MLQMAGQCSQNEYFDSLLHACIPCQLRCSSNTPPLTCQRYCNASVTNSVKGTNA

[3] = molecular target: T1, Human B cell maturation antigen (BCMA, …); experiment: flow cytometry on NCI-H929 cells with endogenous BCMA, PE anti-human IgG Fc secondary, MFI against concentration
[4] = molecular target: T1, Human B cell maturation antigen (BCMA, …); experiment: ELISA on recombinant TrxA-BCMA, OD450 against IgG concentration

Question: Which overall response rate ([1]; for MM) does the source give for Belantamabmafodotin here?
Answer: 32%

Question: And the “patients reported ocular toxicities requiring dose adjustments, dose delays and treatment discontinuations” value ([1]; patients with this ADC)?
Answer: over 60%

Question: What does the source list for `CC(=O)O[C@H]1C(=O)[C@@]2(C)[C@H]([C@H](OC(=O)c3ccccc3)[C@]3(O)C[C@H](OC(=O)[C@H](O)[C@@H](NC(=O)c4ccccc4)c4ccccc4)C(C)=C1C3(C)C)[C@]1(OC(C)=O)CO[C@@H]1C[C@@H]2O` [Paclitaxel]?
Answer: IC50 (JJN-3): 4.31 nM; IC50 (MM1S): 3.28 nM; orders of the antitumor activity (JJN-3 cell xenograft): Paclitaxel<C-385; IC50 (NCI-H929): 2.89 nM

B1: Humanized antibody hu5D2 (antibody, human IgG1, kappa, V domains shown)
VH: QVQLVQSGAEVVKPGASVKMSCKASGYTFTSFLIHWVKQAPGQGLEWIGFIIPGNGGTKYNQKFQGKATLTSDTSSSTAYMELSSLRSEDSAVYYCARYDGSFEGYFDVWGQGTTLTVSS
VL: DVVMTQSPLSLPVSLRQPASISCRSSQSLVHSDGNTYLHWYLQKPGQSPRLLIYKVSNRDSGVPDRFSGSGSGTDFTLKISRVEAEDLGVYFCSQSTHWPWTFGQGTKLEIKR
modifications: N-linked glycan at Asn300
notes: also called Hu5D2 antibody; BCMA antibody
Question: With B1 as the molecule, how does the “EC50 (read off the curve)” value [2] read?
Answer: ~0.02 mg/L

Question: What about the “EC50 (read off the curve)” value [3] of the same molecule?
Answer: ~0.05 mg/L

B2: hu5D2-Tub (antibody, human IgG1, kappa, V domains shown)
VH: B1 VH
VL: B1 VL
modifications: conjugated to a tubulysin analog payload; sites and drug/antibody ratio of the lot used in Fig. 3 are not given
notes: Antibody-drug conjugate of hu5D2; also called hu5D2 conjugated ADC; hu5D2-tub196
Question: For B2, which “EC50 (read off the curve)” value [3] is on record?
Answer: ~0.06 mg/L

B3: c5D2 (antibody, human IgG1, kappa, V domains shown)
VH: EVQLQQSGPELVKPGASVKMSCKASGYTFTSFLIHWVKQKPGQGLEWIGFIIPYNDGTKYNEKFKGKATLTSDKSSSTAYMELSSLTSEDSAVYYCARYDGSFEGYFDVWGAGTTLTVSS
VL: B1 VL with V3L, S7T, Q17D, P18Q, R50K, D60F, W99V, Q105G, R113T
notes: VH/VL of BCMA-A2-6H4-5D2 fused to human IgG1 and kappa constant domains; also called chimeric antibody c5D2
Question: With B3 as the molecule, how does the “EC50 (read off the curve)” value [2] read?
Answer: ~0.05 mg/L

B4: Hybridoma monoclonal antibody BCMA-A2-6H4-5D2 (antibody, V domains shown)
VH: B3 VH
VL: DVLMTQTPLSLPVSLRDQASISCRSSQSLVHSDGNTYLHWYLQKPGQSPKLLIYKVSNRFSGVPDRFSGSGSGTDFTLKISRVEAEDLGVYFCSQSTHVPWTFGGGTKLEIK
notes: Murine hybridoma antibody from BalB/c mice; also called clone BCMA-A2-6H4-5D2; CCTCC C2022188
Question: With B4 as the molecule, how does the “EC50 (read off the curve)” value [2] read?
Answer: ~0.01 mg/L

Question: And the “EC50 (read off the curve)” value [4]?
Answer: ~0.09 mg/L

B5: J6M0 (antibody, V domains shown)
VH: QVQLVQSGAEVKKPGSSVKVSCKASGGTFSNYWMHWVRQAPGQGLEWMGATYRGHSDTYYNQKFKGRVTITADKSTSTAYMELSSLRSEDTAVYYCARGAIYDGYDVLDNWGQGTLVTVSS
VL: DIQMTQSPSSLSASVGDRVTITCSASQDISNYLNWYQQKPGKAPKLLIYYTSNLHSGVPSRFSGSGSGTDFTLTISSLQPEDFATYYCQQYRKLPWTFGQGTKLEIK
Question: With B5 as the molecule, how does the “EC50 (read off the curve)” value [2] read?
Answer: ~0.06 mg/L

Question: What about the “EC50 (read off the curve)” value [4] of the same molecule?
Answer: ~0.04 mg/L
